# T1: Recombinant human Notch4 (human, UniProt Q99466 24-1447, limits assumed)
# T1 construct: also called Notch4 analyte; Notch4 (antigen)
# T1 sequence: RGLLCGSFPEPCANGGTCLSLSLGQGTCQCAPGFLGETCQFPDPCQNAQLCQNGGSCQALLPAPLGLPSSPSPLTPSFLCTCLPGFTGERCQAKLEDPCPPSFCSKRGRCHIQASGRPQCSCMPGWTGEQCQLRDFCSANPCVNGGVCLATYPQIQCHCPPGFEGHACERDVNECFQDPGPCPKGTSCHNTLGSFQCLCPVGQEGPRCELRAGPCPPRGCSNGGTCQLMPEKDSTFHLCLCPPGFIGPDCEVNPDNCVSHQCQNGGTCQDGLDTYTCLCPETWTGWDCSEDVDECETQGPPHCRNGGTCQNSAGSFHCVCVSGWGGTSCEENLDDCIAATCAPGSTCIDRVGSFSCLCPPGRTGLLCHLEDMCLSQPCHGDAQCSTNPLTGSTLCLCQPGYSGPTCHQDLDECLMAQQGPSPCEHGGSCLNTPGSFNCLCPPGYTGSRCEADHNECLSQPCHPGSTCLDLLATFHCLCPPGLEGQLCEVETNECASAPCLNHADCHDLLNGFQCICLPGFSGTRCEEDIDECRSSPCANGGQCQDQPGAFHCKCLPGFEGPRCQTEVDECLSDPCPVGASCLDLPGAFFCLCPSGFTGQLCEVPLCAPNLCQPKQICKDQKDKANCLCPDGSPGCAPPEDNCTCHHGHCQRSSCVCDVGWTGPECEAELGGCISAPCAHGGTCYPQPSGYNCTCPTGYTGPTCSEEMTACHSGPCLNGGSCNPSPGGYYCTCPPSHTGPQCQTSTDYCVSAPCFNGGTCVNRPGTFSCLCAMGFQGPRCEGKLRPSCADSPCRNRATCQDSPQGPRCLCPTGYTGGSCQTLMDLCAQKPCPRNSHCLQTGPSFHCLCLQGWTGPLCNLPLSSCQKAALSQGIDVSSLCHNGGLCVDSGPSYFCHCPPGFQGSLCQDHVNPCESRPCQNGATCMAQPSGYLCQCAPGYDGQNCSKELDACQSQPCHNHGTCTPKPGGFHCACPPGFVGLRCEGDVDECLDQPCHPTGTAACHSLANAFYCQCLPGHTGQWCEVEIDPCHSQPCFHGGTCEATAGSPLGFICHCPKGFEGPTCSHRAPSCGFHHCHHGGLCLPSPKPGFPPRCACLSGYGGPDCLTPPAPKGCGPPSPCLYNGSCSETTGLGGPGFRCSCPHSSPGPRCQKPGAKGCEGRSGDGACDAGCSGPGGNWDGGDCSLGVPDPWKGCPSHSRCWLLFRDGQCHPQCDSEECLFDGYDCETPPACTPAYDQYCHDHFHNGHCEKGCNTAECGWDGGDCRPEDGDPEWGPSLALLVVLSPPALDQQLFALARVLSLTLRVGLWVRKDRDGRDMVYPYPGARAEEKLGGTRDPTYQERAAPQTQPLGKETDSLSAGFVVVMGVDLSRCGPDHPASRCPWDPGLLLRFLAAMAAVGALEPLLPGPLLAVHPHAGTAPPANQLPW
# B1: iggrefmat 6-16 (antibody, V domains shown)
# VH: EVQLVESGGGLVQPGRSLRLSCAASEFSFSRFDMHWVRQAPGKGLEWVSAISSSGSYKDYADSVEGRFTISRDNAKNSLYLQMNSLRAEDTAVYYCAREAYGDYGKPFDYWGQGTLVTVSS
# VL: DIQMTQSPSSLSASVGDRVTITCRASQSISRNLAWYQQKPGKAPKLLIYAGSTLQRGVPSRFSGSGSGTDFTLTISSLQPEDVATYYCLQANMYPLTFGGGTKV
# notes: Tested as an antibody captured by anti-human IgG Fc
# B2: iggrefmat 1-29 (antibody, V domains shown)
# VH: QVQLVQSGAEVKKPGASVKVSCKVSRGTFSTYAIHWVRQAPGKGLEWMGGINAATGYTIYAQKFQGRVTMTEDTSTDTAYMELSSLKSEDTAVYYCVRSVGSIEYWGQGTLVTVSS
# VL: DIQMTQSPSSVSASVGDRVTITCRASQGISNHLAWYQQKPGKAPKLLIYGASSRQSGVPSRFSGSGSGTDFTLTISSLQPEDFANYYCLHDRYPYTFGGGTKVEIK
# notes: Tested as an antibody captured by anti-human IgG Fc; also called C01-Lib1-Pl1
# B3: iggrefmat 3-4 (antibody, V domains shown)
# VH: EVQLVQSGAEVKKPGASVKVSCKASGYTFSDHYISWVRQAPGQGLEWMGWMNPTSGHTNYAQKLQGRGTMTTDPSTSTAYMELRSLRSDDTAVYYCARVSGRWLPAVDGHYYYYYGMDVWGQGTTVTVSS
# VL: ESALTQPASVSGSPGQSITISCTGTGSNIGAGYGVSWYQQHPGKAPKLMIYANINRPPGVSNRFSGSKSGNTASLTISGLQAEDEADYYCSSYTSSSWMFGGGTKLTVL
# notes: Tested as an antibody captured by anti-human IgG Fc; also called D11-Lib4-Pl1
# B4: iggrefmat 3-11 (antibody, V domains shown)
# VH: EVQLVQSGAEVKKPGASVKVSCKASGYTFATYPISWVRQAPGQGLEWMGGMNPTTGDTIYAQKLQGRGTMTTDPSTSTAYMELRSLRSDDTAVYYCARGDRAWFDPWGQGTLVTVSS
# VL: B3 VL
# notes: Tested as an antibody captured by anti-human IgG Fc; also called H03-Lib6-Pl2
# B5: iggrefmat 1-12 (antibody, V domains shown)
# VH: QVQLVQSGAEVKKPGASVKVSCKVSGYPFSNYAIHWVRQAPGKGLEWMGGISPYTGKTIYAQKFQGRVTMTEDTSTDTAYMELSSLKSEDTAVYYCAFSRYYYDSSGYHGDAFDIWGQGTMVTVSS
# VL: DIQMTQSPSSVSASVGDRVTITCRASQGISNHLAWYQQKPGKAPKLLIYDASNRATGVPSRFSGSGSGTDFTLTISSLQPEDFANYYCQQSFTIPSFGGGTKVEIK
# notes: Tested as an antibody captured by anti-human IgG Fc; also called C02-Lib1_Pl1
# B6: iggrefmat 2-16 (antibody, V domains shown)
# VH: QVQLVESGGGLVQPGGSLRLSCAASGLTFSGSAMSWVRQAPGKGLELVASITGSGTRTYYPDSVKGRFTISRDNAKNSLYLQMNSLRAEDTAVYYCARGLHAFDIWGQGTMVTVSS
# VL: DIVMTQSPLSLPVTPGEPASISCRSSQSLLSSYGYHNLHWYLQKPGQSPQLLIYMGYNRASGVPDRFSGSGSGTDFTLKISRVEAEDVGVYYCMQGMHLPITFGGGTKVEIK
# notes: Tested as an antibody captured by anti-human IgG Fc; also called C07-Lib3-Pl1
# B7: C03-Lib1-Pl1 (antibody, V domains shown)
# VH: QVQLVQSGAEVKKPGASVKVSCKVSGYTFTDLPIHWVRQAPGKGLEWMGGINPHSGDAIYAQKFQGRVTMTEDTSTDTAYMELSSLKSEDTAVYYCTTVIAVAGSNDSRPCGRSYLCVLDYWGQGTLVTVSS
# VL: DIQMTQSPSSVSASVGDRVTITCNASQGIGHSLAWYQQKPGKAPKLLIYGATSRATGVPSRFSGSGSGTDFTLTISSLQPEDFANYYCLQDYIYPFTFGGGTKVEIK
# notes: as for B1
# B8: iggrefmat 1-34 (antibody, V domains shown)
# VH: QVQLVQSGAEVKKPGASVKVSCKVSGYTLTKSSIHWVRQAPGKGLEWMGGINPSAGTRIYAQKFQGRVTMTEDTSTDTAYMELSSLKSEDTAVYYCVRGSNPNVWGKGTTVTVSS
# VL: DIQMTQSPSSVSASVGDRVTITCRASQTIGNYLAWYQQKPGKAPKLLIYKASTLASGVPSRFSGSGSGTDFTLTISSLQPEDFANYYCQQYNFYPRTFGGGTKVEIK
# notes: as for B1
# B9: iggrefmat 2-12 (antibody, V domains shown)
# VH: EVQLVESGGGLVQPGGSLRLSCAASGFSFGTYSMSWVRQAPGKGLELVASIDTAGTPYYPDSVKGRFTISRDNAKNSLYLQMNSLRAEDTAVYYCARSYSGYDPYDAFDIWGQGTMVTVSS
# VL: DIVMTQSPLSLPVTPGEPASISCRSSRSLVHGSGDNYLHWYLQKPGQSPQLLIYDASNRFSGVPDRFSGSGSGTDFTLKISRVEAEDVGVYYCAQTLQIPLTFGGGTKVEIK
# notes: Tested as an antibody captured by anti-human IgG Fc; also called E08-Lib3-Pl1
# B10: G04-Lib6-Pl2 (antibody, V domains shown)
# VH: EVQLVQSGAEVKKPGASVKVSCKASGYSFTKSGIHWVRQAPGQGLEWMGWINPRTGNINYAQKLQGRGTMTTDPSTSTAYMELRSLRSDDTAVYYCARTHLGSSSSPPGYYYGMDVWGQGTTVTVSS
# VL: ESALTQPASVSGSPGQSITISCTGTNIGAKAVSWYQQHPGKAPKLMIYAENKRPSGVSNRFSGSKSGNTASLTISGLQAEDEADYYCQAWDNRAILFGGGTKLTVL
# notes: as for B1
# B11: iggrefmat 3-13 (antibody, V domains shown)
# VH: EVQLVQSGAEVKKPGASVKVSCKASGFPFSTSAISWVRQAPGQGLEWMGWMDPATGQTNYAQKLQGRGTMTTDPSTSTAYMELRSLRSDDTAVYYCARALRYCSGGRCQGFHGMDVWGQGTTVTVSS
# VL: ESALTQPASVSGSPGQSITISCTGTNIAAKSVSWYQQHPGKAPKLMIYANINRPPGVSNRFSGSKSGNTASLTISGLQAEDEADYYCSSYTSSSWMFGGGTKLTVL
# notes: Tested as an antibody captured by anti-human IgG Fc; also called C11-Lib4-Pl1
# B12: B07-Lib3-Pl1 (antibody, V domains shown)
# VH: EVQLVESGGGLVQPGGSLRLSCAASGFTLDNYVMSWVRQAPGKGLELVASISGSSADTYYPDSVKGRFTISRDNAKNSLYLQMNSLRAEDTAVYYCAKGIAAGYGMDVWGQGTTVTVSS
# VL: DIVMTQSPLSLPVTPGEPASISCRSSQSLLHSSGYTYLHWYLQKPGQSPQLLIYATSYRAPGVPDRFSGSGSGTDFTLKISRVEAEDVGVYYCMQATHPYTFGGGTKVEIK
# notes: as for B1
# B13: iggrefmat 6-28 (antibody, V domains shown)
# VH: EVQLVESGGGLVQPGRSLRLSCAASGFSFSDYHMHWVRQAPGKGLEWVGAISGSAYTTDYADSVEGRFTISRDNAKNSLYLQMNSLRAEDTAVYYCARDDYNKDGFDPWGQGTLVTVSS
# VL: DIQMTQSPSSLSASVGDRVTITCRASQSIYSYLAWYQQKPGKAPKLLIYDASRLQSGVPSRFSGSGSGTDFTLTISSLQPEDVATYYCQQGYRSPITFGGGTKVEIK
# notes: Tested as an antibody captured by anti-human IgG Fc; also called E03-Lib8H1N4
# B14: G05-Lib3-Pl1 (antibody, V domains shown)
# VH: EVQLVESGGGLVQPGGSLRLSCAASGFTFSDYSMSWVRQAPGKGLELVASISESGHDTYYPDSVKGRFTISRDNAKNSLYLQMNSLRAEDTAVYYCARGIAVAGTRAFDIWGQGTMVTVSS
# VL: DIVMTQSPLSLPVTPGEPASISCRSSQSLLYSTGYNYLHWYLQKPGQSPQLLIYMGSYRASGVPDRFSGSGSGTDFTLKISRVEAEDVGVYYCMQALPTPPITFGGGTKVEIK
# notes: as for B1
# B15: C08-Lib3-Pl1 (antibody, V domains shown)
# VH: EVQLVESGGGLVQPGGSLRLSCAASGLPFSSYGMSWVRQAPGKGLELVASIGTSGTRTYYPDSVKGRFTISRDNAKNSLYLQMNSLRAEDTAVYYCARLGEGSGWSYFDYWGQGTLVTVSS
# VL: DIVMTQSPLSLPVTPGEPASISCRSSQSLLHSTGYNYLHWYLQKPGQSPQLLIYSGSYRASGVPDRFSGSGSGTDFTLKISRVEAEDVGVYYCQQGYSTPHTFGGGTKVEIK
# notes: as for B1
# Biological target: T1, Recombinant human Notch4
# Assay: SPR, antibody captured by anti-human IgG Fc on HC30M chip, Notch4 as analyte
# Method: Binding kinetics measurements. Following expression and purification, clones were characterized using surface plasmon resonance (SPR) to determine binding kinetics and epitope binding activity. HC30M chips (polycarboxylate hydrogel surfaces having medium charge density and 30 nm coating thickness) were coated with anti-human Fc antibodies (unlabeled goat anti-human IgG Fc from Southern Biotech) to capture the candidate antibodies. Candidate antibodies were diluted to 10 μg/mL in HEPES-buffered saline Tris-EDTA (HBSTE)) and exposed to the surfaces for 15 minutes. After stabilizing baseline using HBSTE, Notch4 analytes were injected sequentially from a lowest concentration of 0.41 nM to a highest concentration of 300 nM. (Notch4 was diluted in HBSTE+0.5 mg/mL bovine serum albumin (BSA) to obtain a series of 3-fold dilutions.) To assess specificity, experiments were also run using Notch2 as an analyte in a single injection at 100 nM in HBSTE+0.5 mg/mL.
row,Binder,Kd [nM]
1,B1,0.38
2,B2,6.1
3,B3,2.6
4,B4,0.92
5,B5,1.5
6,B6,1.5
7,B7,5.3
8,B8,1.5
9,B9,5.6
10,B10,1.6
11,B11,2.5
12,B12,5
13,B13,3.4
14,B14,0.89
15,B15,0.41

# — patent publication US20250243271A1 (ALCEA THERAPEUTICS, published 2025)
